Test results reported in paper PMC7459424.

Target: T1, recombinant Strep-Flag-IL-17 (SF-IL-17), murine (mouse), Q62386
T1 chain: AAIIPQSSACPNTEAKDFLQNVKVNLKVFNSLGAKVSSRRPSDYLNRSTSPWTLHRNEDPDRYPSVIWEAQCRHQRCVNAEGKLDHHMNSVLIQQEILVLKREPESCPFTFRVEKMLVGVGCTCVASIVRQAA
Assay: SDS-PAGE without and with DTT, Coomassie stain; purified SF-IL-17 in SDS sample buffer, untreated or reduced with 50 mM DTT
Details: remark: other sources report otherwise

stoichiometry N: 2
B1: recombinant Strep-Flag-IL-17 (SF-IL-17), murine, Q62386 26-158 (ligand)
chain: T1 chain
